Reference: patent publication US20150246949A1, “Desmoglein 2 (DSG2) Binding Proteins and Uses Therefor” (UNIVERSITY OF WASHINGTON THROUGH ITS CENTER FOR …, priority 2012, published 2015)
Where a chain is given by its changes, count along the chain named. Names may count otherwise. “Also recorded” adds a separate entry of the source.

B1: Ad3-S4/Kn (ligand)
chain: GSLEENIKVNTPLTKSNHSINLPIGNGLQIEQNKLCSKLGNGLTFDSSNSIALKNNTLWTGPKPEANCIIEYGKQNPDSKLTLILVKNGGIVNGYVTLMGASDYVNTLFKNKNVSINVELYFDATGHILPDSSSLKTDLELKYKQTADFSARGFMPSTTAYPFVLPNAGTHNENYIFGQCYYKASDGALFPLEVTVMLNKRLPDSRTSYVMTFLWSLNAGLAPETTQATLITSPFTFSYIREDD
notes: also called wild-type Ad3 fibers
B2: Ad3-S3/Kn (ligand)
chain: HSINLPIGNGLQIEQNKLCSKLGNGLTFDSSNSIALKNNTLWTGPKPEANCIIEYGKQNPDSKLTLILVKNGGIVNGYVTLMGASDYVNTLFKNKNVSINVELYFDATGHILPDSSSLKTDLELKYKQTADFSARGFMPSTTAYPFVLPNAGTHNENYIFGQCYYKASDGALFPLEVTVMLNKRLPDSRTSYVMTFLWSLNAGLAPETTQATLITSPFTFSYIREDD
notes: as for B1
B3: N186D (protein)
chain: MKVSALKEKVSALKEKVSALKEKVSALKEKVSALKEGSGGGSGGGSGGGSNSIALKNNTLWTGPKPEANCIIEYGKQNPDSKLTLILVKNGGIVNGYVTLMGASDYVNTLFKDKNVSINVELYFDATGHILPDSSSLKTDLELKYKQTADFSARGFMPSTTAYPFVLPNAGTHNENYIFGQCYYKASDGALFPLEVTVMLNKRLPDSRTSYVMTFLWSLNAGLAPETTQATLITSPFTFSYIREDD
B4: JO-2: affinity enhanced version of JO-1; printed Y293D, Kd fits V239D; b41 links JO-2 to K217E/F224S (protein)
chain: B3 chain with D113N, V166D
B5: E299V (protein)
chain: B3 chain with D113N, E226V
B6: K217E+F224S (protein)
chain: B3 chain with D113N, K144E, F151S
B7: Ad3-S6/Kn (ligand)
chain: GVLSLKCVNPLTTASGSLQLKVGSGLTVDTTDGSLEENIKVNTPLTKSNHSINLPIGNGLQIEQNKLCSKLGNGLTFDSSNSIALKNNTLWTGPKPEANCIIEYGKQNPDSKLTLILVKNGGIVNGYVTLMGASDYVNTLFKNKNVSINVELYFDATGHILPDSSSLKTDLELKYKQTADFSARGFMPSTTAYPFVLPNAGTHNENYIFGQCYYKASDGALFPLEVTVMLNKRLPDSRTSYVMTFLWSLNAGLAPETTQATLITSPFTFSYIREDD
notes: as for B1
B8: wt Ad3 fiber knob without dimerization domain (ligand)
chain: NKLCSKLGNGLTFDSSNSIALKNNTLWTGPKPEANCIIEYGKQNPDSKLTLILVKNGGIVNGYVTLMGASDYVNTLFKNKNVSINVELYFDATGHILPDSSSLKTDLELKYKQTADFSARGFMPSTTAYPFVLPNAGTHNENYIFGQCYYKASDGALFPLEVTVMLNKRLPDSRTSYVMTFLWSLNAGLAPETTQATLITSPFTFSYIREDD
notes: range 108-319; also called wt Ad3knob/noDD; wt Ad3 knob (noDD); not shown: N-terminal 6-His tag of pQE30 and the Gly/Ser linker encoded by primer P1
B9: Ad3-S2/Kn (ligand)
chain: KLCSKLGNGLTFDSSNSIALKNNTLWTGPKPEANCIIEYGKQNPDSKLTLILVKNGGIVNGYVTLMGASDYVNTLFKNKNVSINVELYFDATGHILPDSSSLKTDLELKYKQTADFSARGFMPSTTAYPFVLPNAGTHNENYIFGQCYYKASDGALFPLEVTVMLNKRLPDSRTSYVMTFLWSLNAGLAPETTQATLITSPFTFSYIREDD
notes: as for B1
B10: Ad3-S5/Kn (ligand)
chain: GSLQLKVGSGLTVDTTDGSLEENIKVNTPLTKSNHSINLPIGNGLQIEQNKLCSKLGNGLTFDSSNSIALKNNTLWTGPKPEANCIIEYGKQNPDSKLTLILVKNGGIVNGYVTLMGASDYVNTLFKNKNVSINVELYFDATGHILPDSSSLKTDLELKYKQTADFSARGFMPSTTAYPFVLPNAGTHNENYIFGQCYYKASDGALFPLEVTVMLNKRLPDSRTSYVMTFLWSLNAGLAPETTQATLITSPFTFSYIREDD
notes: as for B1

Experiments:
[1] = biological target: T1, soluble CD46 (UniProt P15529 35-343); assay: Western blot, soluble CD46 as probe, anti-CD46 mAb
T1 construct: also called sCD46
T1 sequence: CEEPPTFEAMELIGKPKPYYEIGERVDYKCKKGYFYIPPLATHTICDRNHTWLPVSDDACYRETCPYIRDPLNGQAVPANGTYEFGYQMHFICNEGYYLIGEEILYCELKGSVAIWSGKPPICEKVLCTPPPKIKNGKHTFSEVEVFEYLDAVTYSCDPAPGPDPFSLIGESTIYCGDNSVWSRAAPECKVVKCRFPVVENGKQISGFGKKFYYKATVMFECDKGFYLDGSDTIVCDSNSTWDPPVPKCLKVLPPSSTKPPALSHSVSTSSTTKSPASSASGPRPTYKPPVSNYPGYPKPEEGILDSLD

[2] = tested on: polarized colon cancer T84 cells; assay: Transepithelial electrical resistance (TEER) permeability assay; assay type: cell-based; conditions: for Effect on TEER: 5 μg dimeric Ad3 fiber knob added 1 hour to apical chamber; for TEER compared to JO-1: dimeric affinity-enhanced mutants, TEER at 4 hours, N=3
Experimental: (§1) FIG. 5. Correlation of reduced DSG2 binding with the ability to open epithelial junctions. A) Transepithelial electrical resistance (TEER) measured on polarized colon cancer T84 cells. Cells were cultured in transwell chambers until the TEER was constant, i.e. tight junctions had formed. A total of 5 μg of dimeric Ad3 fiber knobs in PBS was then added for 1 hour to the apical chamber. TEER was measured at the indicated time points. N=6. For time points 1.5 and 4 hours the difference between JO-1 vs D261N and N186D was significant (p<0.01). The arrows indicate the addition and removal of Ad3 fiber knobs. B) Enhancement of irinotecan therapy. A total of 4×10^6 A549 cells were injected subcutaneously into CB17-SCID/beige mice. Once the tumor reached a volume of ˜100 mm^3 (day 15 after implantation), the mice were injected intravenously with 2 mg/kg JO-1, E299V, N186D, or PBS, followed by an intravenous injection of irinotecan (37.5 mg/kg) one hour later. The treatment was repeated on day 25. N=5. […] The difference between “irinotecan” vs “JO-1+irinotecan” was significant (p<0.01) from day 20 on.
FIG. 9. Analysis of dimeric Ad3 fiber knob mutants with increased affinity to DSG2. A) Competition of Ad3-GFP virus infection on HeLa cells with dimeric affinity-enhanced mutant Y250F and JO-1 (dimeric wt Ad3 fiber knob). The experimental setting is as described for FIG. 3C. left panel: percentage of GFP positive cells. Right panel: mean fluorescence intensity. N=3. The standard deviation was less than 10%. B) Competition of Ad3-GFP virus infection on HeLa cells by Ad3 knob mutants with enhanced DSG2 binding but without dimerization domain. 1.5×10^5 HeLa cells were seeded into 24 well plates. Cells were incubated with the Ad3 knob mutants at the increasing concentrations for one hour at room temperature. 100 pfu/cell of Ad3GFP virus were then added and GFP expression was analyzed 18 hours later. C) TEER on colon cancer T84 cells. The experimental setting was the same as for FIG. 5A. The TEER at 4 hours is shown. N=3.
A total of 5×10^5 T84 cells were seeded in 12 mm transwell inserts (PET membrane, with 0.4 μm pore size (Corning, N.Y.) and cultured for >14 days until transepithelial electrical resistance (TEER) was stable. Culture medium was changed every 2-3 days. The cells were exposed to DSG2 ligands (20 μg/ml) in adhesion medium (DMEM, 1% FBS, 2 mM MgCl2, 20 mM HEPES) for 15 min at room temperature and TEER was measured and calculated as described elsewhere (39).

[3] = tested on: A549 xenograft tumors; assay: Enhancement of irinotecan therapy in A549 xenograft tumors; assay type: in vivo, CB17-SCID/beige mice; conditions: 2 mg/kg i.v. one hour before irinotecan 37.5 mg/kg i.v.; days 15 and 25; N=5
Experimental: as §1
FIG. 10. Combination of affinity-enhanced JO-1 versions with chemotherapy. A) Enhancement of irinotecan (I) therapy. The experimental setting was the same as in FIG. 5B. […] N=5. […] Mammary fat pad tumors were established from primary ovarian cancer ovc316 cells. Treatment was started when tumors reached a volume of 100 mm^3 Mice were injected intravenously with 2 mg/kg JO-1 or with 0.5 mg/kg JO-4, followed by an intravenous injection of PEGylated liposomal doxorubicin (PLD) (1 mg/kg) one hour later. Treatment was repeated weekly. […] A total of 4×10^6 TNBC MDA-MB-231 cells were injected into the mammary fat pad of CB17 SCID-beige mice. JO-4 (2 mg/kg) was intravenously injected 1 hour before the application of cetuximab (C) (10 mg/kg, i.p.) and nab-paclitaxel (nab-P) (5 mg/kg, i.v). Treatment was given weekly. N=10 P<0.01 at day 25 for nab-P+C vs JO-4+nab-P+C.
A549, MDA-MB-231, and ovc316 xenograft tumors were established by injection of the corresponding tumor cells into the mammary fat pad (1:1 with Matrigel) of CB17 mice. TC1-DSG2 tumors were established by subcutaneous injection of TC1-DSG2 cells into DSG2 transgenic mice. JO-0, JO-1, JO-2, or JO-4 were intravenously injected one hour before the application of chemotherapeutic drugs: Irinotecan/Camptosar™ (Pfizer Inc., Groton, Conn.), PEGylated liposomal doxorubicin/Lipodox™ (Sun Pharmaceuticals IN, India), cetuximab/Erbitux™ (ImClone, Somerville, N.J.), nanoparticle albumin conjugated paclitaxel/Abraxane™ (Abraxis Biosciences, Summit N.J.). Tumor volumes were measured three times a week. Each treatment group consisted of a minimum of 5 mice.

[4] = biological target: T2, Recombinant human DSG2 protein (Leinco Technologies) (human, UniProt Q14126 50-609); assay: SPR (BIAcore 3000), DSG2 immobilised on CM4 chip, knob injected
T2 construct: also called soluble DSG2; soluble recombinant DSG2
T2 sequence: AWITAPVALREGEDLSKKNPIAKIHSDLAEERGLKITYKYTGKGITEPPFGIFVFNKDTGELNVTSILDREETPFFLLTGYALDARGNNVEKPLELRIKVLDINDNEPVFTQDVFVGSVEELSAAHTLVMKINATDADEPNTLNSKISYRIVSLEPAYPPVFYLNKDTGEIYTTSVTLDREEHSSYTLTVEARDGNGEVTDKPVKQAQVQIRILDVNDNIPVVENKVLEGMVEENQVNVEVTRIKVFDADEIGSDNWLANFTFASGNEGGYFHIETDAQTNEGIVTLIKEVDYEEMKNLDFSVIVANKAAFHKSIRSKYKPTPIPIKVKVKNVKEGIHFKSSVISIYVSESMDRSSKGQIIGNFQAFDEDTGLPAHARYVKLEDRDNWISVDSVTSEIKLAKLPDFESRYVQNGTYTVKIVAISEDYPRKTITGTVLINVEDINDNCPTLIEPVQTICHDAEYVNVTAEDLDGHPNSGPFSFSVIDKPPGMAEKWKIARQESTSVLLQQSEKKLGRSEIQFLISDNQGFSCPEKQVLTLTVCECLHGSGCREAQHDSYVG

[5] = biological target: T2, Recombinant human DSG2 protein (Leinco …); assay: SPR (BIAcore 3000), DSG2 immobilised on the sensor chip, knobs injected at 2.5 to 10 µg/ml, BIAeval

Row | Molecule | binding result [1] | Enhancement of irinotecan therapy [3] | also measured
1 | B1 | no binding |  | 
2 | B2 | no binding |  | 
3 | B3 |  | not significant | Effect on TEER [2]: intermediate effects
4 | B4 |  | increased irinotecan therapy significantly more than JO-1; also recorded: significant from day 20 on | TEER compared to JO-1 [2]: significantly higher
5 | B5 |  | not significant | Effect on TEER [2]: intermediate effects
6 | B6 |  |  | TEER compared to JO-1 [2]: significantly higher
7 | B7 | no binding |  | 
8 | B8 |  |  | Kd [4]: 10 µM; Kd [5]: 10.1 µM; koff [5]: 0.00572 s⁻¹; kon [5]: 527 M⁻¹ s⁻¹
9 | B9 | no binding |  | 
10 | B10 | no binding |  | 
